The numbers were not newly measured in PMC6815954, “Rational design of caspase-responsive smart molecular probe for positron emission tomography imaging of drug-induced apoptosis” (Theranostics, 2019), which cites them from elsewhere.

For this data set, the system named is tumor. More on the design: method as in PMID 25972517.

B1: ^99mTc-Annexin V: established radiotracer (protein, UniProt P08758 2-320, looked up)
Annexin A5: AQVLRGTVTDFPGFDERADAETLRKAMKGLGTDEESILTLLTSRSNAQRQEISAAFKTLFGRDLLDDLKSELTGKFEKLIVALMKPSRLYDAYELKHALKGAGTNEKVLTEIIASRTPEELRAIKQVYEEEYGSSLEDDVVGDTSGYYQRMLVVLLQANRDPDAGIDEAQVEQDAQALFQAGELKWGTDEEKFITIFGTRSVSHLRKVFDKYMTISGFQIEETIDRETSGNLEQLLLAVVKSIRSIPAYLAETLYYAMKGAGTDDHTLIRVMVSRSEIDLFNIRKEFRKNFATSLYSMIKGDTSGDYKKALLLLCGEDD
modifications: 99mTc radiolabel
notes: established radiotracer
Regarding B1, the “differential response to treatment” value is reported as “little differential response”.
